According to the supplement of paper PMC7877785:
± gives the uncertainty stated by the source.

Experiment: self-splicing fitness, log relative to wild type (ln ratio); higher = more splicing; Tetrahymena group I intron in knt gene, E. coli kanamycin selection, DiMSum; sequences stand for … in CUCUCU…GGAGGGAAAAGUUAUCAGGCAUGCACCUGGUAGCUAGUCUUUAAACCAAUAGAUUGCAUCGGUUUAAAAGGCAAGACCGUCAAAUUGCGGGAAAGGGGUCAACAGCCGUUCAGUACCAAGUCUCAGGGGAAACUUUGAGAUGGCCUUGCAAAGGGUAUGGUAAUAAGCUGACGGACAUGGUCCUAACCACGCAGCCAAGUCCUAAGUCAACAGAUCUUCUGUUGAUAUGGAUGCAGUUCACAGACUAAAUGUCGGUCGGGGAAGAUGUAUUCUUCUCAUAAGAUAUAGUCGGACCUCUCCUUAAUGGGAGCUAGCGGAUGAAGUGAUGCAACACUGGAGCCGCUGGGAACUAAUUUGUAUGCGAAAGUAUAUUGAUUAGUUUUGGAGUACUCGUGGUCG
Procedure, shortened: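 Colonies from six replicate transformations of E. coli BL21(DE3) were pooled and amplicon-sequenced on an Illumina HiSeq 2500. The library placed an intron with all eight P1ex-region nucleotides randomised inside the knt kanamycin-resistance gene on pET-22b(+), and cells grew overnight at 37°C or 30°C on LB agar with or without 25 μg/mL kanamycin (plus 100 μg/mL carbenicillin, 50 μM IPTG, 0.2% rhamnose). Fitness is the DiMSum error-weighted combination of wild-type-normalised replicate fold changes, kanamycin versus none.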

| Sequence | self-splicing fitness (ln) (30 °C) | self-splicing fitness (ln) (37 °C) |
| --- | --- | --- |
| UGGCAGCAAUAUUACGGGCU | -3.06 ± 0.16 | -2.02 ± 0.15 |
| UGGCAGCAAUAUUACGGGUC | -3.28 ± 0.29 | -1.28 ± 0.28 |
| UGGCAGCAAUAUUACGGUUU | -0.212 ± 0.061 | -0.422 ± 0.078 |
| UGGCAGCAAUAUUACGUGUU | -3.93 ± 0.19 | -2.2 ± 0.12 |
| UGGCAGCAAUAUUACGUUCC | -2.02 ± 0.17 | -1.09 ± 0.18 |
| UGGCAGCAAUAUUACGUUCU | 0.076 ± 0.06 | 0.0497 ± 0.069 |
| UGGGAGCAAUAUUACGAGUA | -3.85 ± 0.43 | -2.59 ± 0.44 |
| UGGGAGCAAUAUUACGCCAU | -3.45 ± 0.33 | -0.288 ± 0.26 |
| UGGGAGCAAUAUUACGCGCG | -1.51 ± 0.3 | -0.924 ± 0.35 |
| UGGGAGCAAUAUUACGCUUU | – | -2.01 ± 0.31 |
| UGGGAGCAAUAUUACGGUUA | -3.22 ± 0.37 | -1.65 ± 0.16 |
| UGGGAGCAAUAUUACGGUUU | -3.58 ± 0.16 | -3.35 ± 0.23 |
| UGGGAGCAAUAUUACGUGAG | -2.33 ± 0.18 | -1.14 ± 0.14 |
| UGGUAGCAAUAUUACGAAAC | -4.02 ± 0.42 | -2.42 ± 0.45 |
| UGGUAGCAAUAUUACGACGA | -0.462 ± 0.14 | 1.24 ± 0.19 |
| UGGUAGCAAUAUUACGACUU | -0.197 ± 0.16 | 0.212 ± 0.16 |
| UGGUAGCAAUAUUACGCCCA | -0.775 ± 0.21 | -1.14 ± 0.23 |
| UGGUAGCAAUAUUACGCCGG | -1.3 ± 0.12 | -0.73 ± 0.13 |
| UGGUAGCAAUAUUACGCGGG | -2.93 ± 0.2 | -2.47 ± 0.2 |
| UGGUAGCAAUAUUACGCGUA | -1.26 ± 0.24 | -1.56 ± 0.27 |
| UGGUAGCAAUAUUACGCUAG | -2.07 ± 0.13 | -1.82 ± 0.16 |
| UGGUAGCAAUAUUACGCUGU | -3.24 ± 0.19 | -2.12 ± 0.17 |
| UGGUAGCAAUAUUACGGAAA | -1.86 ± 0.28 | -1.81 ± 0.24 |
| UGGUAGCAAUAUUACGGAUA | -1.92 ± 0.24 | -2.72 ± 0.27 |

| Sequence | self-splicing fitness (ln) (30 °C) | self-splicing fitness (ln) (37 °C) |
| --- | --- | --- |
| UGGUAGCAAUAUUACGGGAA | -2.02 ± 0.22 | -1.6 ± 0.19 |
| UGGUAGCAAUAUUACGGUAU | -3.64 ± 0.32 | -1.87 ± 0.4 |
| UGGUAGCAAUAUUACGUAGA | -2.54 ± 0.17 | -1.16 ± 0.14 |
| UGGUAGCAAUAUUACGUAGG | -1.25 ± 0.14 | -1.35 ± 0.25 |
| UGGUAGCAAUAUUACGUAUC | – | -2.38 ± 0.45 |
| UGGUAGCAAUAUUACGUCAG | -2.07 ± 0.19 | -0.266 ± 0.15 |
| UGGUAGCAAUAUUACGUCGA | -0.768 ± 0.1 | 0.144 ± 0.1 |
| UGGUAGCAAUAUUACGUCUA | -0.44 ± 0.096 | 0.358 ± 0.12 |
| UGGUAGCAAUAUUACGUGAC | -3.97 ± 0.27 | -1.05 ± 0.2 |
| UGGUAGCAAUAUUACGUGAU | -2.76 ± 0.25 | -1.34 ± 0.16 |
| UGGUAGCAAUAUUACGUGCG | -0.612 ± 0.12 | -0.415 ± 0.15 |
| UGGUAGCAAUAUUACGUUCA | -0.227 ± 0.11 | -0.354 ± 0.14 |
| UGUAAGCAAUAUUACGAACU | -0.349 ± 0.12 | -0.682 ± 0.12 |
| UGUAAGCAAUAUUACGACGC | -2.61 ± 0.36 | -1.61 ± 0.3 |
| UGUAAGCAAUAUUACGAGCA | -0.193 ± 0.14 | 0.404 ± 0.2 |
| UGUAAGCAAUAUUACGAGCU | -0.434 ± 0.16 | 0.293 ± 0.16 |
| UGUAAGCAAUAUUACGAGGU | -4.29 ± 0.36 | -2.63 ± 0.28 |
| UGUAAGCAAUAUUACGAUGU | -3.26 ± 0.15 | -1.93 ± 0.21 |
| UGUAAGCAAUAUUACGCCAC | -3.43 ± 0.33 | -2.65 ± 0.41 |
| UGUAAGCAAUAUUACGCGCA | -0.603 ± 0.14 | -0.167 ± 0.17 |
| UGUAAGCAAUAUUACGCGCC | -1.18 ± 0.1 | -0.53 ± 0.13 |
| UGUAAGCAAUAUUACGCGUC | -3.31 ± 0.25 | -2.65 ± 0.32 |
| UGUAAGCAAUAUUACGGCAG | -0.191 ± 0.091 | 0.0264 ± 0.11 |
| UGUAAGCAAUAUUACGGCGC | -1.87 ± 0.18 | -1.43 ± 0.25 |
